Laboratory results reported in patent US20090068174A1, “THERAPEUTIC ALKALINE PROTEASE COMPOSITIONS AND USE IN FACILITATING THE TRANSPORT OF AGENTS ACROSS THE GASTROINTESTINAL MUCOSAL LINING” (Kansas University Medical Center Research Institute, Inc., priority 2007, published 2009).

Target: T1, mouse recombinant TNF-α (Mus musculus, UniProt P06804)
T1 sequence (P06804 80-235 limits assumed): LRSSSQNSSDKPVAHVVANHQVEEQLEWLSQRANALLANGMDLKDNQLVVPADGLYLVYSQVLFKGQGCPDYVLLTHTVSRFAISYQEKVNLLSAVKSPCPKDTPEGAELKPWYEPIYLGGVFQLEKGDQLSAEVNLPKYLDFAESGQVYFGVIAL
Assay: Bioactivity of protease-treated mouse TNF-α in the C2C12 cell bioassay (nitrite)
Format: cell-based
Conditions: C2C12 cells, NO (nitrite) production
Protocol: Effects of three purified A. oryzae proteases on the bioactivity of mouse TNF-α (A) protease powder prepared according to Example 1 (preparation); (B) alkaline protease; (C) 26 kDa protease; and (D) deuterolysin. 50 ng quantities of TNF-α were incubated at 37° C. for 24 hours with the indicated quantities of the protease powder prepared according to Example 1 or one of the three purified proteases. The reactions were then stopped by addition of FBS and samples were added to C2C12 cells that had been costimulated with mouse IFN-γ. Twenty-four hours later, nitrite was measured in culture fluids.
The protease powder prepared according to Example 1 inactivates mouse recombinant TNF-α. 50 ng of the cytokine was treated for 24 hours with either 0 (□); 5 (∘); or 10 ng ([…]) of either Pseudomonas elastase (A) or protease powder prepared according to Example 1 (B). Then the residual bioactivity of the cytokine was measured by its ability to co-activate mouse C2C12 myoblast cells in the presence of excess IFN-γ for the production of NO (nitrite).
The protease powder prepared according to Example 1 inactivates mouse recombinant TNF-α by limited proteolysis. […]

With “Pseudomonas elastase: Pseudomonas protease used as a positive control [reference compound]” the “Effect on bioactivity of mouse TNF-α” value was “led to a loss of its biological activity”.
